Experimental findings from US20180086825A1 (published 2018) are described below.

This test has as its target T1, Ang2 protein (R&D systems) (human, UniProt O15123 19-496, limits assumed).
T1 sequence: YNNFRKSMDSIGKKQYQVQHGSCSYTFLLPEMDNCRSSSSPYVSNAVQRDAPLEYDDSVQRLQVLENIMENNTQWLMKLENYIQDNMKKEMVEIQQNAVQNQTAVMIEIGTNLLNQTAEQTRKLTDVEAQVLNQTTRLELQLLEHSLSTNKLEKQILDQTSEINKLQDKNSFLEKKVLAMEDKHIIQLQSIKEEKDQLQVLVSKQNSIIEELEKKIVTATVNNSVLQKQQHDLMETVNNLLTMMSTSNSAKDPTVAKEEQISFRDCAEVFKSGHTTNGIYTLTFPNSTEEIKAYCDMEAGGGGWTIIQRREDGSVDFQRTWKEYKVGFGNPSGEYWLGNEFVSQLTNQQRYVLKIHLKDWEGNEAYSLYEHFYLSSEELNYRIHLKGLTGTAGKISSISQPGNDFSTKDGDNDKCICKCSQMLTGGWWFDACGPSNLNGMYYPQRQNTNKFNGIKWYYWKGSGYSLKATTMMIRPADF
Kind of test: cell-based or functional assay.

B1: SAIT-ANG2-AB-m10D6 (antibody, V domains shown)
VH: DVQLQESGPGLVKPSQSLSLTCTVTGYSITSDYAWNWIRQFPGNKLEWMGYINYSGNTDYNPSLKSRSSITRDTSKNQFFLQLNSVTTGDTATYYCARGNFEGAMDYWGQGTSVTVSS
VL: SIVMTQTPKFLLVSAGDRVTITCKASQSVSNDVAWYQQKPGQSPKLLIYYASNRYPGVPDRFTGSGYGTDFTFTISTVQAEDLAVYFCQQDYSSPWTFGGGTKLEIK
On to B1, for which the “Tie2 phosphorylation level (pTyr/Tie2 ratio, HUVEC, 60 nM antibody with Ang2)” value was 180%.
